Results: patent US20240299459A1
Values belong to the substance of their own block, whether it stands above or below them.

How the values were obtained:
[1] = target: integrin β1 on human synovium-derived stem cells (human) (UniProt P05556); assay: flow cytometry staining of human synovium-derived stem cells, first lot listed (ST1414)
[2] = target: integrin β1 on human synovium-derived stem cells (human) (UniProt P05556); assay: flow cytometry staining of human synovium-derived stem cells, third lot listed (ST1434)
[3] = target: integrin β1 on human synovium-derived stem cells (human) (UniProt P05556); assay: flow cytometry staining of human synovium-derived stem cells, fourth lot listed (ST1462)
[4] = target: integrin β1 on human synovium-derived stem cells (human) (UniProt P05556); assay: flow cytometry staining of human synovium-derived stem cells, second lot listed (ST1420)
[5] = target: integrin β1 on rat synovium-derived mesenchymal stem cells (rat) (UniProt P49134); assay: flow cytometry staining of rat synovium-derived MSC, TrypLE detachment 5 minutes
[6] = target: integrin β1 on rat synovium-derived mesenchymal stem cells (rat) (UniProt P49134); assay: flow cytometry staining of rat synovium-derived MSC, TrypLE detachment 30 minutes
[7] = target: integrin β1 on rat synovium-derived mesenchymal stem cells (rat) (UniProt P49134); assay: flow cytometry staining of rat synovium-derived MSC, TrypLE detachment 60 minutes
[8] = target: integrin β1 on rat synovium-derived mesenchymal stem cells (rat) (UniProt P49134); assay: flow cytometry staining of rat synovium-derived MSC, TrypLE detachment 120 minutes
[9] = target: integrin β1 on rat synovium-derived mesenchymal stem cells (rat) (UniProt P49134); assay: flow cytometry staining of rat synovium-derived MSC cultured 8 days, TrypLE detachment 120 minutes
[10] = target: integrin β1 on rat synovium-derived mesenchymal stem cells (rat) (UniProt P49134); assay: flow cytometry staining of rat synovium-derived MSC cultured 21 days, TrypLE detachment 120 minutes
[11] = target: integrin β1 on rat synovium-derived mesenchymal stem cells (rat) (UniProt P49134); assay: flow cytometry staining of rat synovium-derived MSC cultured 28 days, TrypLE detachment 120 minutes
[12] = target: platelet-derived growth factor receptor β on rat synovium-derived mesenchymal stem cells (rat) (UniProt Q05030); assay: cell-based or functional assay
[13] = target: platelet-derived growth factor receptor β on human synovium-derived stem cells (human) (UniProt P09619); assay: flow cytometry staining of human synovium-derived stem cells, first lot listed (ST1414)
[14] = target: platelet-derived growth factor receptor β on human synovium-derived stem cells (human) (UniProt P09619); assay: flow cytometry staining of human synovium-derived stem cells, third lot listed (ST1434)
[15] = target: platelet-derived growth factor receptor β on human synovium-derived stem cells (human) (UniProt P09619); assay: flow cytometry staining of human synovium-derived stem cells, fourth lot listed (ST1462)
[16] = target: platelet-derived growth factor receptor β on human synovium-derived stem cells (human) (UniProt P09619); assay: flow cytometry staining of human synovium-derived stem cells, second lot listed (ST1420)
[17] = target: platelet-derived growth factor receptor β on rat synovium-derived mesenchymal stem cells (rat) (UniProt Q05030); assay: flow cytometry staining of rat synovium-derived MSC with FITC anti-goat secondary, TrypLE detachment 5 minutes
[18] = target: platelet-derived growth factor receptor β on rat synovium-derived mesenchymal stem cells (rat) (UniProt Q05030); assay: flow cytometry staining of rat synovium-derived MSC with FITC anti-goat secondary, TrypLE detachment 30 minutes
[19] = target: platelet-derived growth factor receptor β on rat synovium-derived mesenchymal stem cells (rat) (UniProt Q05030); assay: flow cytometry staining of rat synovium-derived MSC with FITC anti-goat secondary, TrypLE detachment 60 minutes
[20] = target: platelet-derived growth factor receptor β on rat synovium-derived mesenchymal stem cells (rat) (UniProt Q05030); assay: flow cytometry staining of rat synovium-derived MSC with FITC anti-goat secondary, TrypLE detachment 120 minutes

UniProt P09619, sequence (P09619 33-1106): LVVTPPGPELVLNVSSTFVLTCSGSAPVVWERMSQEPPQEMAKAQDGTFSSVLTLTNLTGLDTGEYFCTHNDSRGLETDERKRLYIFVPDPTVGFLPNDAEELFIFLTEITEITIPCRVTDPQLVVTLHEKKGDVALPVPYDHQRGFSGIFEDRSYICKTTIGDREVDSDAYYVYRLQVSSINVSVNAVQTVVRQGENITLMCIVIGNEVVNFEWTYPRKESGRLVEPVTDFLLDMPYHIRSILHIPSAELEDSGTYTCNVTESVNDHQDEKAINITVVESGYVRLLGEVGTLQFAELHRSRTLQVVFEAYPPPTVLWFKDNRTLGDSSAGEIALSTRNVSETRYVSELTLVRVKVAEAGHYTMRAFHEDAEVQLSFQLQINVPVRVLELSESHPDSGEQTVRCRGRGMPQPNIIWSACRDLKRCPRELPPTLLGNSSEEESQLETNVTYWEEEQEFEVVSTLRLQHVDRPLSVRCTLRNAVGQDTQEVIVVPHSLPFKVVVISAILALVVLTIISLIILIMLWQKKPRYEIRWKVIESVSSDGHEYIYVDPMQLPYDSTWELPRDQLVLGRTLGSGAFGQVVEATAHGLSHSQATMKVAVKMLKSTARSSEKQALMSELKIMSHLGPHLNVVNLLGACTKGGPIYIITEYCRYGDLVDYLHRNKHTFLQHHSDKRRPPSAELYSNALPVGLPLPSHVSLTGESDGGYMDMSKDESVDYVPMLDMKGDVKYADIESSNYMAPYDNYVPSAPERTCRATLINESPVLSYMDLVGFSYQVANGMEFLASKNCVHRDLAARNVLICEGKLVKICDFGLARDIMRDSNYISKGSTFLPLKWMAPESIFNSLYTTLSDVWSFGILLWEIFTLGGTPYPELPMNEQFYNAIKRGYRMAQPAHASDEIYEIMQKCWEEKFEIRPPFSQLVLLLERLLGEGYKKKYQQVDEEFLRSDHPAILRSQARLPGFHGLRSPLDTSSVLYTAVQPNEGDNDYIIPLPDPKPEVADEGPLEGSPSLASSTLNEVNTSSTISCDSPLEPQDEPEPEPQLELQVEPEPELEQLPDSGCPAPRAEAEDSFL
UniProt P05556, sequence (P05556 21-798): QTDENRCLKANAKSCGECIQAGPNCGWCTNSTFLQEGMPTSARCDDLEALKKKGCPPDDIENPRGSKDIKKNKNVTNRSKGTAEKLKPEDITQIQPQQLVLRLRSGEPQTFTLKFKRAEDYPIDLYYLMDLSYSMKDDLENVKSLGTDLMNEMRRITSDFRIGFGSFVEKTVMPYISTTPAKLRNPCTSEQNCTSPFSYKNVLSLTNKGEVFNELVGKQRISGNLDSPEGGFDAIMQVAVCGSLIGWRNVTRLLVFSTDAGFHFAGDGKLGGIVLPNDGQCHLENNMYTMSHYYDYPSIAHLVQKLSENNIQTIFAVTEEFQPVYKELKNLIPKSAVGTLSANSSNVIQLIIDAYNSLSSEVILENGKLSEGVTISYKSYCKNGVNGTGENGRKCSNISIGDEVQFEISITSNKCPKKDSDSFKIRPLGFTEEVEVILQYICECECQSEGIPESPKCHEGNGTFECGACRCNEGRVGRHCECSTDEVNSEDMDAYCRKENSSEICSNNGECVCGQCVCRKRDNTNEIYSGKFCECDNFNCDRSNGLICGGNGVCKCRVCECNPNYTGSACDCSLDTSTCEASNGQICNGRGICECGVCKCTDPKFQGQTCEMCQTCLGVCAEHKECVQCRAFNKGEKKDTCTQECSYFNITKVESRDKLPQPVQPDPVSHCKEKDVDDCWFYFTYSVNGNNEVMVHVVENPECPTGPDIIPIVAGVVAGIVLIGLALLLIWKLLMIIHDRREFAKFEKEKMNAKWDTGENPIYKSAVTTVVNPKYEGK
UniProt P49134, sequence (P49134 21-798): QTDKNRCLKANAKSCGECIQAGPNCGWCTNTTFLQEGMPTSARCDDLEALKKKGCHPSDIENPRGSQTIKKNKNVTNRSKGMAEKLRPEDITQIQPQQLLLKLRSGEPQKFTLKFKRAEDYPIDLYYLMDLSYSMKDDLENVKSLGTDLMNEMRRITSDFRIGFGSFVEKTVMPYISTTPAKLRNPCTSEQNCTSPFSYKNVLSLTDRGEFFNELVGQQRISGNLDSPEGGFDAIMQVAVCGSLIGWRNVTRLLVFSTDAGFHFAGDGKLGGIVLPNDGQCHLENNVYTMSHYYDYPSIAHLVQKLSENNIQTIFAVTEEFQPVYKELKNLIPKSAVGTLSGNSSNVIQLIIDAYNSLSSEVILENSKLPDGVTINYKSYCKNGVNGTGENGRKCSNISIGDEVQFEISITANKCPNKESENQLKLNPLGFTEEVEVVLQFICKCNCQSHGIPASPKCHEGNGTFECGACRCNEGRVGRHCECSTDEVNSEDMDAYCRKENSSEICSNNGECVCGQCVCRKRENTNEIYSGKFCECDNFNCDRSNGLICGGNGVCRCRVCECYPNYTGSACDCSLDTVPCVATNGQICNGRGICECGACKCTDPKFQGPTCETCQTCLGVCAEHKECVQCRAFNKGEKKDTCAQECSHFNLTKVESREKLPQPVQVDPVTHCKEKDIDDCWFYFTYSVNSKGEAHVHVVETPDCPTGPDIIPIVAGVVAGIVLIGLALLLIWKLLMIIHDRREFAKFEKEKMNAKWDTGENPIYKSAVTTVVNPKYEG
UniProt Q05030, sequence (Q05030 32-1097): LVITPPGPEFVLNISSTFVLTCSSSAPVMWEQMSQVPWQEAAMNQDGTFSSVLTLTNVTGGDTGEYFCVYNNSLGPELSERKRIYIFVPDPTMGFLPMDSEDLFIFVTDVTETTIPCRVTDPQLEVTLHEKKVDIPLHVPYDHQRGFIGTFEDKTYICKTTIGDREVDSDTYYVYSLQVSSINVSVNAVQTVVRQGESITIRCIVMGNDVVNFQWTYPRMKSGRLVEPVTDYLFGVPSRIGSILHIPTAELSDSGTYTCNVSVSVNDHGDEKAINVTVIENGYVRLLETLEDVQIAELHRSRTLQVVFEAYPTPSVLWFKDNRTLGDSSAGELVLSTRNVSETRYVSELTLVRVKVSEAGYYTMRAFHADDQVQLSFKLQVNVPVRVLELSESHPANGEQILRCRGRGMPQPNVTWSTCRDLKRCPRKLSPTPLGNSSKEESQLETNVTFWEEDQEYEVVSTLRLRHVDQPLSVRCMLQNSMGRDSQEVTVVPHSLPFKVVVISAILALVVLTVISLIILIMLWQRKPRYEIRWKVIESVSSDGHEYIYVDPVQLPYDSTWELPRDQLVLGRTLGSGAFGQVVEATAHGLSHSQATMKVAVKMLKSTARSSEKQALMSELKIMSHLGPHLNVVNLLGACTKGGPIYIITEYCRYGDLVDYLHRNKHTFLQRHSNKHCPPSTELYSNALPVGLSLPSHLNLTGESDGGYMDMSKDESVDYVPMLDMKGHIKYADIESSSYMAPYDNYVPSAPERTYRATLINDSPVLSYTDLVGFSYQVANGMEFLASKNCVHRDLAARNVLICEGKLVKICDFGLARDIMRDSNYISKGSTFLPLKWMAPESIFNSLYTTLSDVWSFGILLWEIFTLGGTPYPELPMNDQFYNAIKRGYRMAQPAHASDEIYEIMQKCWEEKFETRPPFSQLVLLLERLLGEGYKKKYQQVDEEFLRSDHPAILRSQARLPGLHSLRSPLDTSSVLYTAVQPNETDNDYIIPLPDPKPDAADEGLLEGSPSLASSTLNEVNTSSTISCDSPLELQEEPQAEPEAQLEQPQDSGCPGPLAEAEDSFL

surface antigen positive rate [1]: 99.4% | surface antigen positive rate [2]: 99.6% | surface antigen positive rate [3]: 99.5% | surface antigen positive rate [4]: 99.6%
Substance: APC Mouse Anti-Human CD29, Cat: 559883 (antibody)

Expression rate (percent positive cells) [5]: 98.7% | Expression rate (percent positive cells) [6]: 99.7% | Expression rate (percent positive cells) [7]: 96.1% | Expression rate (percent positive cells) [8]: 97.8% | Expression rate (percent positive cells) [9]: 97.8% | Expression rate (percent positive cells) [10]: 62.1% | Expression rate (percent positive cells) [11]: 56.1%
Substance: PE anti-mouse/rat integrin β1 Antibody (Biolegend Cat. No. 102207)

ATP concentration (cell proliferation with rat PDGF-BB 4 ng/mL, Cell Titer Glo, 6th day of culture), 10 µg/mL PDGFRb-rSMSC [12]: 0.62 µmol/L | ATP concentration (cell proliferation with rat PDGF-BB 4 ng/mL, Cell Titer Glo, 6th day of culture), 20 µg/mL PDGFRb-rSMSC [12]: 0.65 µmol/L | ATP concentration (cell proliferation with rat PDGF-BB 4 ng/mL, Cell Titer Glo, 6th day of culture), 40 µg/mL PDGFRb-rSMSC [12]: 0.24 µmol/L | ATP concentration (cell proliferation, Cell Titer Glo, 6th day of culture), 40 µg/mL PDGFRb-rSMSC [12]: 3.78 µmol/L | ATP concentration (cell proliferation, Cell Titer Glo, 6th day of culture), 120 µg/mL PDGFRb-rSMSC [12]: 4.12 µmol/L | surface antigen positive rate [13]: 92.2% | surface antigen positive rate [14]: 95.2% | surface antigen positive rate [15]: 85.9% | surface antigen positive rate [16]: 90.7% | Expression rate (percent positive cells) [17]: 91.6% | Expression rate (percent positive cells) [18]: 76.9% | Expression rate (percent positive cells) [19]: 63.3% | Expression rate (percent positive cells) [20]: 32.8%
Substance: Anti-PDGF Receptor β Human Goat-Poly (R & D Systems Cat. No. AF385) (antibody)
